Assay results: paper PMC1874666 (Nucleic Acids Research, 2007)

Target: the molecule itself
Assay: AUC

B1: Helicobacter pylori neutrophil-activating protein (HP-NAP) (natural protein, UniProt P43313 1-144, looked up)
chain: MKTFEILKHLQADAIVLFMKVHNFHWNVKGTDFFNVHKATEEIYEEFADMFDDLAERIVQLGHHPLVTLSEAIKLTRVKEETKTSFHSKDIFKEILEDYKYLEKEFKELSNTAEKEGDKVTVTYADDQLAKLQKSIWMLQAHLA
stoichiometry N: 12
